The DeepSol protein solubility set

Assay: soluble on expression in E. coli; label from the status in PepcDB or PDB records

| Sequence | soluble on expression in E. coli |
| --- | --- |
| MGSDKIHHHHHHMLEIVAFRGDEYGLSARILADFLDEFRIHEMSPDNFNGKEEIENDFIIVCNPKLLTENFLRQAYEYSRDRGIYFGVISALSIDLLREKLANYQEQISLDPQQYLIILRKENKSIKHRLNAEVFTRYESTVDNFDRVKHKKLCLSMVIDGNRRHLHLSDGKICGINRDIPLEEIYRYFPDCQNCEYERVYAQDVQAECIFMDSCSSTLISTSEKGEYINVGMNFLKNAKVLISSYRPKQGYNSEALLFHHLISHGFEAGEVLYILNTNSYNHCSDYLPYILYGFPNAKVTIPEKLEVDRLRMGKSEIVLEIDRIAGMRLLEIHAGEDILNEVLKRQFYVFSSDEIRKDVFYSVIPYPLKNSIKLFLYSWEEVNGPLRIVFGVGKRLREDVYSKRYFNMRKLELLGFRHKKIQNQVHDYFSKINEQTEVLDEANRNLKNFDLHRLSKNLSAVEERIYNLLADHLLSQNPKFFIEVYGENMTVRCAEEDLHKTIRCPYCGNYLSIKESENTLVPMKRYSGFCSNCHNVFDTESVHPPKYPEIVLVHEQPDRKIFYVKVWNENAHTTNNLVCFNLWCENRSEMENIYLSRDFQVFTLEPGGEEKFEVEVALKRTDQRINKTYCLYVYWFEDFNLSVSTYTFRLKNV | not soluble |
| MGSDKIHHHHHHMLELGQTPNAAPDAAPADLIKDTTDATFMADVVDASQTTPVIVDFWAPWCGPCKTLGPQLEAAVTAAKGKVRMVKVNVDENQQIAAQLRVQSIPMVYAFVDGQPIDGFQGAVPESQIKDFVTKLAAMSKEDGGLAEALEAAEEMLSMGEHDDAAQTFAAILGEEPENAAAMGGLARAHLAMGQVDEAEQLLSTAPDAIFNAPELEAVRAQIELARQAESAGPLAELQAAVDANPDDHAARFELAQALHANGDVEQAVDQLLELFRRDREWEDAKAKTQLFTIFDALPPQDPIALTGRRRLSSMIFA | not soluble |
| MGSDKIHHHHHHMLFCSMNAVRNWYILPVFFITSFISKGQNGALIPDTYDQFFQNYYLINPANTDTAGVILHMGHKSQLGVFRGVRQTYFDANFRIQSNRFNRAHSVGIQLFNNSEGDFFSKNRIYGRYAFDIHLSETYFLSAGIAVGAVSYAFKATQSSAGGSDLAYDGSTGLWVVGRKLKAGISIQQISQGKLSPLGQIFELRRQYNANVSYLFFINPDIQLTTHVWYKYQQHNMHDVQVAAIITLQNLVEFGGNYKYQKGVVLIGGLKDIHIGTSSLSLAMSYSTGILNYLAKGDNAVEVFLTYSR | not soluble |
| MGSDKIHHHHHHMLGRTANGLYWMFRYIERAENSARLIDAGLRMSLTRSEAAEDDWDGVLQSADVRELYDQVHEGLTSGDAIDFLLRDRTNPSSVMSCIEAGRNNARMVRTALTRETWEAINECWIEMKGILARRAKTTDMPEIIDTIKRRAGLIRGAFHGTMLRNEIFNFSRIGTFIERADNTARILDVKYYVLLPAVSAVGSSMDNVQWESILRSVSAHRSYGWVYDAELRPANIADFLIANGRMPRSLAYCYDKLVSNLGYLAREYGERHAAHETAEQTLGLLRSQSIAEIMDQGLHQYLKEFINQNNRLGREISDGYRFYQ | not soluble |
| MGSDKIHHHHHHMLHKNDYRLGIDVGGTNTDAAILDADLRCIATAKFPTSMDIYSGIERVIAAVLAQSGIEPQHICYAMLGTTQCTNAIVERKGLDRVGLLRLSLPSSDSVPPLFGWDDEWQKTLGEHFYQLHGGYEFDGREIHPVLLNEVLAVCDTMRGHVDSVAICGVFSPVNNDQELQVAQWVNAALPDVSLSLSHRIGSTGLLERENATILNASLQSTANRFVNGFIQALVRHGIKATPFFGQNDGTLMSESMVKQYPILTMACGPTNSIRGACHLSGLDNALIIDVGGTTTDIGVLVNGFPRESAIAVEVGDVRTNFRMPDIISIGIGGGTCVRQSQNGTLTLGPDSVGYRLLEQSVSFGGETLTLNDIMLQLQRERWTSSLSHSLPELDKALCLEAYRQMIDKVESAIDRIKSSSAAIPAVLVGGGSILLPDVLSGVSQVMRPQNFDAANAVGVALGKVGAQIERVVKMSDNDREKIKSELQQQTICLAEETGAMPGSVEIIDYQEIPLAYLPGNAVQVKIKAAGNLA | not soluble |
| MGSDKIHHHHHHMLHQANRTGASTRVEFILPDSIEGYIPLKADLHLHTYFSDGHLSPSARVREAWLDGLDAISVTDHIEYHPADTDMIGYLGATLPDGIEAHNVNKKTNVKPKQDLNKSVELTKKAAVSYGLLIIPGIEITREPKGIGHYNALFTTDNNGIYDPDPLTAIRNAKAQGALVMHNHPGWRRESIQHPDFELKAYGEGLIDGIEANNGTAFCPGTIDRAKEDNLFVASTTDLHDTSFEEYIGRGLRRDMTIILAKDRSLDAMRDALENRRTIGYGAGGTLMGQEYLLRQLFMSCVSISPVNGHNIQLKNPTSLRFIIHPDGKNPIVLPEFSSIILSDKDRGFSVDNAWTGADSFLRISL | not soluble |
